{"source": "the supplement of paper PMC10567573", "experiment": "protein stability index of a GFP-peptide fusion (GPS, HEK-293T) (PSI 1-6); higher = more stable", "details": "c terminus: a fixed tail appended", "note": "± gives the standard deviation.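 Note: 24-mer peptide tiles fused after GFP, lentivirally expressed, FACS-sorted into six equal bins by GFP/DsRed ratio, decoded by Illumina sequencing, PSI is the read-weighted mean bin number.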", "data": [{"sequence": "CSCQADPRHQGHRVQPVKDTAHDF [TRIM35]", "values": [{"measurement": "protein stability index", "setting": "treatment: DMSO", "value": "3.42 ± 0.31"}, {"measurement": "protein stability index", "setting": "treatment: MLN4924 1 uM, 8 h", "value": "3.56 ± 0.14"}]}, {"sequence": "PTPQVDELDILPIHPPSGNSDLDP [BTBD10]", "values": [{"measurement": "protein stability index", "setting": "treatment: DMSO", "value": "5.54 ± 0.097"}, {"measurement": "protein stability index", "setting": "treatment: MLN4924 1 uM, 8 h", "value": "5.39 ± 0.35"}]}, {"sequence": "DDISVDSLDFTKKILHTAWHPAEN [PPP2R2C]", "values": [{"measurement": "protein stability index", "setting": "treatment: DMSO", "value": "3.12 ± 0.36"}, {"measurement": "protein stability index", "setting": "treatment: MLN4924 1 uM, 8 h", "value": "3.12 ± 0.49"}]}, {"sequence": "AYPLELQGQPDPAPRPGPPAGTPP [MOSPD3]", "values": [{"measurement": "protein stability index", "setting": "treatment: DMSO", "value": "5.14 ± 0.23"}, {"measurement": "protein stability index", "setting": "treatment: MLN4924 1 uM, 8 h", "value": "5.01 ± 0.14"}]}, {"sequence": "MVRSVAWAGFMVLLMIPWGSAAKL [CHIT1]", "values": [{"measurement": "protein stability index", "setting": "treatment: DMSO", "value": "3.13 ± 0.57"}, {"measurement": "protein stability index", "setting": "treatment: MLN4924 1 uM, 8 h", "value": "2.87 ± 0.2"}]}, {"sequence": "ENEETGEFSIDNYPTDNTKVMIFK [MIA2]", "values": [{"measurement": "protein stability index", "setting": "treatment: MLN4924 1 uM, 8 h", "value": "4.217 ± 0.033"}]}, {"sequence": "RQPPPPAPQHPQPGSQALPAPALA [FBXO28]", "values": [{"measurement": "protein stability index", "setting": "treatment: DMSO", "value": "4.45 ± 0.23"}, {"measurement": "protein stability index", "setting": "treatment: MLN4924 1 uM, 8 h", "value": "4.74 ± 0.16"}]}, {"sequence": "RRRRIIINVGGIKYSLPWTTLDEF [KCNG1]", "values": [{"measurement": "protein stability index", "setting": "treatment: DMSO", "value": "2.48 ± 0.44"}, {"measurement": "protein stability index", "setting": "treatment: MLN4924 1 uM, 8 h", "value": "2.46 ± 0.59"}]}, {"sequence": "ERKPAATARLSRRGTSLSPPPESS [KISS1]", "values": [{"measurement": "protein stability index", "setting": "treatment: DMSO", "value": "5.16 ± 0.17"}, {"measurement": "protein stability index", "setting": "treatment: MLN4924 1 uM, 8 h", "value": "5.26 ± 0.17"}]}, {"sequence": "YLELDRLVWRNSIRSSFISSLSFF [FBXO39]", "values": [{"measurement": "protein stability index", "setting": "treatment: DMSO", "value": "2.86 ± 0.37"}, {"measurement": "protein stability index", "setting": "treatment: MLN4924 1 uM, 8 h", "value": "2.95 ± 0.45"}]}, {"sequence": "LLEDMRASEAFHWDERGRAAAYSP [ANKRD9]", "values": [{"measurement": "protein stability index", "setting": "treatment: DMSO", "value": "2.7 ± 0.44"}, {"measurement": "protein stability index", "setting": "treatment: MLN4924 1 uM, 8 h", "value": "3.18 ± 0.54"}]}, {"sequence": "ESIQQTARSIAEQAHELAYDPNYM [PPTC7]", "values": [{"measurement": "protein stability index", "setting": "treatment: DMSO", "value": "4.52 ± 0.19"}, {"measurement": "protein stability index", "setting": "treatment: MLN4924 1 uM, 8 h", "value": "4.3 ± 0.37"}]}, {"sequence": "VDMECQTDAFLDRPPTPLFIPAKT [RSPH3]", "values": [{"measurement": "protein stability index", "setting": "treatment: DMSO", "value": "4.01 ± 0.1"}, {"measurement": "protein stability index", "setting": "treatment: MLN4924 1 uM, 8 h", "value": "4.19 ± 0.061"}]}, {"sequence": "SELCIWLGSQIKSLCNLEESITSA [FAM98B]", "values": [{"measurement": "protein stability index", "setting": "treatment: DMSO", "value": "1.97 ± 0.23"}, {"measurement": "protein stability index", "setting": "treatment: MLN4924 1 uM, 8 h", "value": "2.55 ± 0.18"}]}, {"sequence": "EQEKEAQHKDQTAALPLAAEETAN [MAP2]", "values": [{"measurement": "protein stability index", "setting": "treatment: DMSO", "value": "5.66 ± 0.12"}, {"measurement": "protein stability index", "setting": "treatment: MLN4924 1 uM, 8 h", "value": "5.5 ± 0.4"}]}, {"sequence": "LGQEFDEVTADDRKVKSTITLDGG [FABP4]", "values": [{"measurement": "protein stability index", "setting": "treatment: DMSO", "value": "5.16 ± 0.21"}, {"measurement": "protein stability index", "setting": "treatment: MLN4924 1 uM, 8 h", "value": "5.32 ± 0.33"}]}, {"sequence": "FKMPWKPTHPSSTHALAEWASRRE [CDC25B]", "values": [{"measurement": "protein stability index", "setting": "treatment: DMSO", "value": "3.54 ± 0.12"}, {"measurement": "protein stability index", "setting": "treatment: MLN4924 1 uM, 8 h", "value": "3.63 ± 0.36"}]}, {"sequence": "RKRTAHERAKELYSSGEFSSGRKW [INTS4]", "values": [{"measurement": "protein stability index", "setting": "treatment: DMSO", "value": "4.06 ± 0.32"}, {"measurement": "protein stability index", "setting": "treatment: MLN4924 1 uM, 8 h", "value": "4.08 ± 0.31"}]}, {"sequence": "RQVALGAMEAVRVNPLHVDSTWLL [SLC25A39]", "values": [{"measurement": "protein stability index", "setting": "treatment: DMSO", "value": "2.53 ± 0.27"}, {"measurement": "protein stability index", "setting": "treatment: MLN4924 1 uM, 8 h", "value": "2.52 ± 0.069"}]}, {"sequence": "LGQDRQVPLWGQLLLFLVFVIVLF [EMD]", "values": [{"measurement": "protein stability index", "setting": "treatment: DMSO", "value": "2.83 ± 0.58"}, {"measurement": "protein stability index", "setting": "treatment: MLN4924 1 uM, 8 h", "value": "2.79 ± 0.76"}]}, {"sequence": "VKMLGSPVDSVLFYAITTLHNLLL [CTNNB1]", "values": [{"measurement": "protein stability index", "setting": "treatment: DMSO", "value": "2.47 ± 0.59"}, {"measurement": "protein stability index", "setting": "treatment: MLN4924 1 uM, 8 h", "value": "2.48 ± 0.6"}]}, {"sequence": "EALCEEDLLLWIQKHTEVETVDLV [DENND6A]", "values": [{"measurement": "protein stability index", "setting": "treatment: DMSO", "value": "3.37 ± 0.25"}, {"measurement": "protein stability index", "setting": "treatment: MLN4924 1 uM, 8 h", "value": "3.08 ± 0.27"}]}, {"sequence": "ENKVVEKAPVQNEAPALGGGEYQE [BEX5]", "values": [{"measurement": "protein stability index", "setting": "treatment: DMSO", "value": "5.41 ± 0.2"}, {"measurement": "protein stability index", "setting": "treatment: MLN4924 1 uM, 8 h", "value": "5.42 ± 0.32"}]}, {"sequence": "CEVPTCSLCKVFGAHKDCQVAPLT [TRIM55]", "values": [{"measurement": "protein stability index", "setting": "treatment: DMSO", "value": "3.58 ± 0.2"}, {"measurement": "protein stability index", "setting": "treatment: MLN4924 1 uM, 8 h", "value": "3.7 ± 0.25"}]}, {"sequence": "NFDHFEILRAIGKGSFGKVCIVQK [STK32A]", "values": [{"measurement": "protein stability index", "setting": "treatment: DMSO", "value": "2.87 ± 0.27"}, {"measurement": "protein stability index", "setting": "treatment: MLN4924 1 uM, 8 h", "value": "3.02 ± 0.24"}]}, {"sequence": "QEEEEDNRDSSMKLSFRARAYGFR [CHGA]", "values": [{"measurement": "protein stability index", "setting": "treatment: DMSO", "value": "4.58 ± 0.13"}, {"measurement": "protein stability index", "setting": "treatment: MLN4924 1 uM, 8 h", "value": "4.62 ± 0.28"}]}, {"sequence": "QPSKSHKKVLKKMLKFLAKGEVPK [ATE1]", "values": [{"measurement": "protein stability index", "setting": "treatment: DMSO", "value": "2.13 ± 0.36"}, {"measurement": "protein stability index", "setting": "treatment: MLN4924 1 uM, 8 h", "value": "2.26 ± 0.58"}]}, {"sequence": "VTLALFFVLYFLLACWTYGISVPS [CLCN6]", "values": [{"measurement": "protein stability index", "setting": "treatment: DMSO", "value": "2.95 ± 0.27"}, {"measurement": "protein stability index", "setting": "treatment: MLN4924 1 uM, 8 h", "value": "2.98 ± 0.19"}]}, {"sequence": "QFLEEINKWTVQYNVSPLSWNVAV [PTPN9]", "values": [{"measurement": "protein stability index", "setting": "treatment: DMSO", "value": "2.79 ± 0.82"}, {"measurement": "protein stability index", "setting": "treatment: MLN4924 1 uM, 8 h", "value": "2.87 ± 0.49"}]}, {"sequence": "SEVFGPERMPPSGAARSFQEVTEP [PXN]", "values": [{"measurement": "protein stability index", "setting": "treatment: DMSO", "value": "4.77 ± 0.32"}, {"measurement": "protein stability index", "setting": "treatment: MLN4924 1 uM, 8 h", "value": "5.19 ± 0.21"}]}, {"sequence": "ECVVAMHQAQLISKIPHILKEMYD [EIF5]", "values": [{"measurement": "protein stability index", "setting": "treatment: DMSO", "value": "2.78 ± 0.38"}, {"measurement": "protein stability index", "setting": "treatment: MLN4924 1 uM, 8 h", "value": "2.32 ± 0.5"}]}, {"sequence": "DNLLRSTQKLSHSTKPSGSPLEEK [MATN2]", "values": [{"measurement": "protein stability index", "setting": "treatment: DMSO", "value": "5.31 ± 0.37"}, {"measurement": "protein stability index", "setting": "treatment: MLN4924 1 uM, 8 h", "value": "5.07 ± 0.37"}]}, {"sequence": "RMEYVHSKNLIYRDVKPENFLIGR [CSNK1G1]", "values": [{"measurement": "protein stability index", "setting": "treatment: DMSO", "value": "2.45 ± 0.16"}, {"measurement": "protein stability index", "setting": "treatment: MLN4924 1 uM, 8 h", "value": "2.79 ± 0.31"}]}, {"sequence": "QPHHQPPNRAGAPGESLECPAELR [TRAF3IP2]", "values": [{"measurement": "protein stability index", "setting": "treatment: DMSO", "value": "5.42 ± 0.23"}, {"measurement": "protein stability index", "setting": "treatment: MLN4924 1 uM, 8 h", "value": "5.21 ± 0.23"}]}, {"sequence": "DSSHERTESQLTPCIRNVTSPTRQ [BTBD10]", "values": [{"measurement": "protein stability index", "setting": "treatment: DMSO", "value": "5.06 ± 0.15"}, {"measurement": "protein stability index", "setting": "treatment: MLN4924 1 uM, 8 h", "value": "5.1 ± 0.12"}]}, {"sequence": "EQCPVIDSQAPAGSLDLVPGGLTL [SPDEF]", "values": [{"measurement": "protein stability index", "setting": "treatment: DMSO", "value": "4.07 ± 0.23"}, {"measurement": "protein stability index", "setting": "treatment: MLN4924 1 uM, 8 h", "value": "4.24 ± 0.13"}]}]}
